Measured values: article PMC3737472

How the values were obtained:
[1] = target: HSV-1 glycoprotein B full-length ectodomain including the membrane proximal region, gB773t (residues 31-773) (herpes simplex virus type 1 (HSV-1)) (UniProt P06437); experiment: cryo-EM projection images; SEC fraction 22 (run without detergent) embedded in vitreous ice on holey carbon grids
[2] = target: HSV-1 glycoprotein B full-length ectodomain including the membrane proximal region, gB773t (residues 31-773) (herpes simplex virus type 1 (HSV-1)) (UniProt P06437); experiment: negative stain EM; SEC fractions 19-22 (run without detergent) on carbon-coated grids at 2-20 ug/ml; 0.75% uranyl formate pH 5.5 or methylamine vanadate pH 8.0
[3] = target: HSV-1 glycoprotein B ectodomain lacking the membrane proximal region, gB730t (residues 31-730) (herpes simplex virus type 1 (HSV-1)) (UniProt P06437); experiment: SEC; Superdex200 column run in 2x PBS; gB773t also run in 2x PBS/0.5% octyl-glucoside after overnight incubation with the detergent
[4] = target: HSV-1 glycoprotein B ectodomain lacking the membrane proximal region, gB730t (residues 31-730) (herpes simplex virus type 1 (HSV-1)) (UniProt P06437); experiment: cryo-EM projection images; SEC fraction 22 (run without detergent) embedded in vitreous ice on holey carbon grids
[5] = target: HSV-1 glycoprotein B ectodomain lacking the membrane proximal region, gB730t (residues 31-730) (herpes simplex virus type 1 (HSV-1)) (UniProt P06437); experiment: negative stain EM; SEC fractions 19-22 (run without detergent) on carbon-coated grids at 2-20 ug/ml; 0.75% uranyl formate pH 5.5 or methylamine vanadate pH 8.0
[6] = target: HSV-1 glycoprotein B ectodomain lacking the membrane proximal region, gB730t (residues 31-730) (herpes simplex virus type 1 (HSV-1)) (UniProt P06437); experiment: cryo-EM structure; cryo-ET subtomogram averaging of gB730t trimers bound to liposomes (phosphatidylcholine:cholesterol 1.7:1), pH 5.5, protein ca. 1 mg/ml, 1 hr at 37 C; 786 particles, 2.7 nm
[7] = target: HSV-1 glycoprotein B ectodomain lacking the membrane proximal region, gB730t (residues 31-730) (herpes simplex virus type 1 (HSV-1)) (UniProt P06437); experiment: negative stain EM; SEC fractions 19-22 (run without detergent) on carbon-coated grids at 2-20 ug/ml; 0.75% uranyl formate pH 5.5 or methylamine vanadate pH 8.0; remark: listed apart in the source

| Substance | stoichiometry N [1] | stoichiometry N [2] | stoichiometry N [3] | stoichiometry N [4] | stoichiometry N [5] | stoichiometry N [6] | stoichiometry N [7] |
| --- | --- | --- | --- | --- | --- | --- | --- |
| HSV-1 glycoprotein B full-length ectodomain including the membrane proximal region, gB773t (residues 31-773) (from UniProt P06437 31-773) (domain or fragment) | 3 | 3 | – | – | – | – | – |
| HSV-1 glycoprotein B ectodomain lacking the membrane proximal region, gB730t (residues 31-730) (from UniProt P06437 31-730) (domain or fragment) | – | – | 3 | 3 | 3 | 3 | 6 |
